Laboratory results taken from patent publication EP4714976A1 (Sunshine Lake Pharma Co., Ltd., dated 2026).
Like-named read-outs stand apart in the source and are kept apart here.

How the values were obtained:
[1] = target: T1, human FGFR2b (Kaixia Biotechnology, catalog number FGR-HM1BB) (human, UniProt P21802-3 22-378); test: BLI, antibody on AHC2 sensor
T1 construct: extracellular domain; bought; also called hFGFR2b; human FGFR2b protein

[2] = target: T2, recombinant cynomolgus monkey FGFR2b (cynomolgus monkey); test: ELISA, antibody 1ug/mL
T2 construct: extracellular domain; bought; also called cynomolgus macaque FGFR2b

FGFR2b on KATO III cells [3] = target: T3, FGFR2b on KATO III cells (human, UniProt P21802-3 22-822); test: flow cytometry, KATO III cells
T3 construct: whole, on cells; also called KATO III cells that overexpress FGFR2b
T3 sequence (P21802 other isoform, or with tags, fused parts or gaps): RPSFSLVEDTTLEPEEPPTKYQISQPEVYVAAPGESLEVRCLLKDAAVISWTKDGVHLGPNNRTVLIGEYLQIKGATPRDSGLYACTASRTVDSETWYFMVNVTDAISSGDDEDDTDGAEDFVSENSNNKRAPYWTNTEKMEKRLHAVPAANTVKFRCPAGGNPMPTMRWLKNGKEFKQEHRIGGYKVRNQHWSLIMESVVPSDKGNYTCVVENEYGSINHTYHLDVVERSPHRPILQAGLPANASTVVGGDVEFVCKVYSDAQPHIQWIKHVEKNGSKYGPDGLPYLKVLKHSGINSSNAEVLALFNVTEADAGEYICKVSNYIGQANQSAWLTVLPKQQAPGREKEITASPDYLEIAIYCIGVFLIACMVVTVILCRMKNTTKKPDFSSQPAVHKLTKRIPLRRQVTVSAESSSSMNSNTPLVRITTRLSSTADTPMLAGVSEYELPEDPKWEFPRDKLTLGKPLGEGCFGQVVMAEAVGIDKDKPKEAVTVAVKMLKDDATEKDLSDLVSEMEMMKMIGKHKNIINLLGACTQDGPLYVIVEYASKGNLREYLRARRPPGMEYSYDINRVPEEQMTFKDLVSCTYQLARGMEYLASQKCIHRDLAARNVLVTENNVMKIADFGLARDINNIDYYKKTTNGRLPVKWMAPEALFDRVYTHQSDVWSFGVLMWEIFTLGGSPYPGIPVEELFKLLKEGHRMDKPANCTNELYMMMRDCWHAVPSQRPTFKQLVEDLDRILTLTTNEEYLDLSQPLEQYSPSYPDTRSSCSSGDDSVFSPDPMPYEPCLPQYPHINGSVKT

[4] = target: T1, human FGFR2b (Kaixia Biotechnology, …); test: ELISA, FGFR2b coated at 1 µg/ml
[5] = target: T4, extracellular domain of FGFR2c protein (Example 1) (UniProt P21802 22-377); test: phage ELISA
T4 construct: extracellular domain
T4 sequence (P21802 22-377): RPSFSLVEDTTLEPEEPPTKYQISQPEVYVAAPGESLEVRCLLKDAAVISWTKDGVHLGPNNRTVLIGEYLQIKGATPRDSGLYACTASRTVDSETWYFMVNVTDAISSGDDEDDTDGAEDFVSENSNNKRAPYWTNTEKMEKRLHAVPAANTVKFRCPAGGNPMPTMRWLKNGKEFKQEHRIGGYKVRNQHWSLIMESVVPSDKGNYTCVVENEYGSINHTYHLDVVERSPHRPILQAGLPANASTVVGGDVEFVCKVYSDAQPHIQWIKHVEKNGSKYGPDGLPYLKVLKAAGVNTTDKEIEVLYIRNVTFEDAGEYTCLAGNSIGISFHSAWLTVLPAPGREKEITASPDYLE

FGFR2c (acro) = FGFR2c (acro) (UniProt P21802 22-377); test: ELISA, antibody 10 µg/mL
Sequence of FGFR2c (acro) (P21802 22-377): as above

FGFR2b on KATO III cells [6] = target: T3, FGFR2b on KATO III cells; test: flow cytometry, KATO III cells; remark: listed apart in the source
[7] = target: T1, human FGFR2b (Kaixia Biotechnology, …); test: BLI, antibody on AHC2 sensor; remark: listed apart in the source

T1 sequence (P21802 other isoform, or with tags, fused parts or gaps): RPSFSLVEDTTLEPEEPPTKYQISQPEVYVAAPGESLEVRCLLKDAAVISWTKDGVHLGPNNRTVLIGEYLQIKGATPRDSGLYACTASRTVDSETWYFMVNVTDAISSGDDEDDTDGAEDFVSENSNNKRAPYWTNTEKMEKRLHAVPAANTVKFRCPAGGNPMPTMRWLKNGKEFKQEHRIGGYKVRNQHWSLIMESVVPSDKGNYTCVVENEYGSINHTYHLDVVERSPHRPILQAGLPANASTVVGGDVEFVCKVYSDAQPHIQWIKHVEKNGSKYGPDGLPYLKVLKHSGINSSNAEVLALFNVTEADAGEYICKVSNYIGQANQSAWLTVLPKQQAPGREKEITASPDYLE

Row | Binder | Kd [1] | koff [1] | kon [1] | OD (450 nm) value [2] | EC50 (FGFR2b on KATO III cells [3]) | EC50 [4] | OD (450 nm) value [5] | OD (450 nm) value (FGFR2c (acro)) | EC50 (FGFR2b on KATO III cells [6]) | Kd [7] | koff [7] | kon [7]
1 | 1G6 scFv-Fc (Fc fusion, scFv-Fc dimer) EIQLQQSGAELVKPGASVKMSCKASGYTFRYYNMHWVKRTPGQGLEWIGLIYPDNGDTSYNQKFKGKATLTADTSSSTAYMQLSSLTSEDSAVYYCARGGLDYWGQGTSLTVSSGGGGSGGGGSGGGGSNIVMTQSHKFMSTSVGDRVSITCKASQDVNTDVAWYQQKPGQSPKLLIYSASYRYTGVPTRFTGSGSGTDFTFTISGVQAEDLADYYCQQHYNTPYTFGGGTKLELKESKYGPPCPPCPAPEAAGGPSVFLFPPKPKDTLMISRTPEVTCVVVDVSQEDPEVQFNWYVDGVEVHNAKTKPREEQFNSTYRVVSVLTVLHQDWLNGKEYKCKVSNKGLPSSIEKTISKAKGQPREPQVYTLPPSQEEMTKNQVSLTCLVKGFYPSDIAVEWESNGQPENNYKTTPPVLDSDGSFFLYSKLTVDKSRWQEGNVFSCSVMHEALHNHYTQKSLSLSLG | 3.97 nM | 0.00149 s⁻¹ | 374000 M⁻¹ s⁻¹ | 3.24 | 0.186 µg/mL | 0.0235 µg/mL | – | – | – | – | – | –
2 | 1A3 scFv displayed on phage (scFv) scFv: QVQLQQPGAELVKPGASVKMSCKASGYTFASYNLHWVKQTPGQGLEWIGLIYPENGDTSYNQKFKGKATLTADKSSSTAYIQLSSLTSEDSAVYFCARGGFDYWGQGTTLTVSQGGGGSGGGGSGGGGSDIQMTQSPASLSASVGETVTITCGASENIYGALNWYQRKQGKSPQLLIYGATNLADGMSSRFSGSGSGRQYSLKISSLHPDDVATYYCQNVLSTPYTFGGGTKLEIK | – | – | – | – | – | – | 0.212 | – | – | – | – | –
3 | 3D7 scFv displayed on phage (scFv) scFv: QVQLQQSGAELVKPGASVKMSCKASGYTFSFYNMHWVKRTPGRGLEWIGLIYPDNGDTSYNQKFKGKATLTADTSSSTAYMQLSSLTSEDSAVYYCARGGLDYWGQGTSLTVSSGGGGSGGGGSGGGGSEIVLTQSPASLAVSLGQRATISCKASQSVDYDGDSYMNWYQQKPGQPPKLLIYGISNRFSGVPDRFSGSGSGTDFTLKISTIKPEDLGMYYCLQGTHQPYTFGGGTKLEIK | – | – | – | – | – | – | 0.037 | – | – | – | – | –
4 | 3B4 scFv-Fc (Fc fusion, scFv-Fc dimer) EVQLQQSGADLVKPGASVKMSCKASGYTFSYYNMHWVRRTPGQGLEWIGLIYPDNGDTSYNQKFKGKATLTADTSSSTAYMQLSSLTSEDSAVYYCARGGLDYWGQGTTLTVSSGGGGSGGGGSGGGGSDIQMIQSPASMSASVGETVTITCGASENIYGALNWYQRKQGKSPQLLIYGATNLADGMSSRFSGSGSGRQYSLKISSLHPDDVATYYCQNVLSTPYTFGGGTKLEMKESKYGPPCPPCPAPEAAGGPSVFLFPPKPKDTLMISRTPEVTCVVVDVSQEDPEVQFNWYVDGVEVHNAKTKPREEQFNSTYRVVSVLTVLHQDWLNGKEYKCKVSNKGLPSSIEKTISKAKGQPREPQVYTLPPSQEEMTKNQVSLTCLVKGFYPSDIAVEWESNGQPENNYKTTPPVLDSDGSFFLYSKLTVDKSRWQEGNVFSCSVMHEALHNHYTQKSLSLSLG | 6.28 nM | 0.00195 s⁻¹ | 311000 M⁻¹ s⁻¹ | 3.32 | 0.168 µg/mL | 0.0166 µg/mL | – | 0.327 | – | – | – | –
5 | 3E3 scFv-Fc (Fc fusion, scFv-Fc dimer) QVQLQQPGAVLVKPGASVRMSCKASGYTFPYYNVHWVKRTPGQGLEWIGLIYPDNGDTSYNQKFTGKATLTADTSSSTAYMQLSSLTSEDSAVYYCARGGLDYWGQGTTLTVSAGGGGSGGGGSGGGGSDVQITQSPASLSASVGETVTITCGASENIYGALNWYQRKQGKSPQLLIYGATNLADGMSSRFSGSGSGRQYSLKISSLHPDDVATYYCQNVLSTPYTFGGGTKLEIKESKYGPPCPPCPAPEAAGGPSVFLFPPKPKDTLMISRTPEVTCVVVDVSQEDPEVQFNWYVDGVEVHNAKTKPREEQFNSTYRVVSVLTVLHQDWLNGKEYKCKVSNKGLPSSIEKTISKAKGQPREPQVYTLPPSQEEMTKNQVSLTCLVKGFYPSDIAVEWESNGQPENNYKTTPPVLDSDGSFFLYSKLTVDKSRWQEGNVFSCSVMHEALHNHYTQKSLSLSLG | 8.18 nM | 0.00184 s⁻¹ | 225000 M⁻¹ s⁻¹ | 3.09 | 0.376 µg/mL | 0.0273 µg/mL | – | – | – | – | – | –
6 | 3A8 scFv-Fc (Fc fusion, scFv-Fc dimer) QVQLQQSGAELVKPGASVKMSCKASGYTFTIYNIHWVRQTPGQGLEWIGLIYPDNGDTSYNQKFKAKATLTADKSSSTAYMQLSSLTSEDSAVYYCARGGFDYWGQGTSLTVSSGGGGSGGGGSGGGGSDIVMTQSQKFMSTSVGDRVSVTCKASQNVGTNVAWYQQKPGQSPKALIYSASYRYSGVPDRFTGSGSGTDFTLTISNVQAEDLADYFCQQHYSTPYTFGGGTKLEMKESKYGPPCPPCPAPEAAGGPSVFLFPPKPKDTLMISRTPEVTCVVVDVSQEDPEVQFNWYVDGVEVHNAKTKPREEQFNSTYRVVSVLTVLHQDWLNGKEYKCKVSNKGLPSSIEKTISKAKGQPREPQVYTLPPSQEEMTKNQVSLTCLVKGFYPSDIAVEWESNGQPENNYKTTPPVLDSDGSFFLYSKLTVDKSRWQEGNVFSCSVMHEALHNHYTQKSLSLSLG | 3.48 nM | 0.0009 s⁻¹ | 259000 M⁻¹ s⁻¹ | – | 0.199 µg/mL | 0.0278 µg/mL | – | – | – | – | – | –
7 | 3D6 scFv-Fc (Fc fusion, scFv-Fc dimer) QVQLQQSGAELVKPGASVKMSCKASGYTFRYYNMHWVKRTPGQGLEWIGLIYPDNGDTSYNQKFKGKATLTADTSSSTAYMQLSSLTSEDSAVYYCARGGLDYWGQGTSLTVSSGGGGSGGGGSGGGGSDIQMTQSPASLSVSVGETVTITCRASENIYSNLAWYQQKQGKSPQLLVYNAKTLADGVPSRFSGSGSGTQYSLKINSLQPEDFGSYYCQHFWSTPFTFGSGTKLELKESKYGPPCPPCPAPEAAGGPSVFLFPPKPKDTLMISRTPEVTCVVVDVSQEDPEVQFNWYVDGVEVHNAKTKPREEQFNSTYRVVSVLTVLHQDWLNGKEYKCKVSNKGLPSSIEKTISKAKGQPREPQVYTLPPSQEEMTKNQVSLTCLVKGFYPSDIAVEWESNGQPENNYKTTPPVLDSDGSFFLYSKLTVDKSRWQEGNVFSCSVMHEALHNHYTQKSLSLSLG | 15 nM | 0.00114 s⁻¹ | 75900 M⁻¹ s⁻¹ | 3.4 | 0.136 µg/mL | 0.0369 µg/mL | – | 0.542 | – | – | – | –
8 | 3C7-VH2-VL1 (antibody, human IgG1, kappa, V domains shown, humanized IgG1) VH: QVQLVQSGAEVKKPGASVKVSCKASGYIFRNYYIHWVRQAPGQGLEWMGAIYPDNGDTSYNQRFKVRATLTADTSTSTVYMELSSLRSEDTAVYYCARAFTYWGQGTTVTVSS VL: DIQMTQSPSSLSASVGDRVTITCGASENIYGALNWYQQKPGKAPKLLIYGATNLADGVPSRFSGSGSGTDYTLTISSLQPEDVATYYCQNVLSTPYTFGGGTKVEIKR | – | – | – | – | – | – | – | – | 0.302 µg/mL | 2.92 nM | 0.000718 s⁻¹ | 246000 M⁻¹ s⁻¹
9 | 3C7-VH2-VL3 (antibody, human IgG1, kappa, V domains shown, humanized IgG1) VH: QVQLVQSGAEVKKPGASVKVSCKASGYIFRNYYIHWVRQAPGQGLEWMGAIYPDNGDTSYNQRFKVRATLTADTSTSTVYMELSSLRSEDTAVYYCARAFTYWGQGTTVTVSS VL: DIQMTQSPSSLSASVGDRVTITCGASENIYGALNWYQRKPGKSPKLLIYGATNLADGVPSRFSGSGSGTDYTLTISSLQPEDVATYYCQNVLSTPYTFGGGTKLEIKR | – | – | – | – | – | – | – | – | 0.572 µg/mL | 2.77 nM | 0.000754 s⁻¹ | 272000 M⁻¹ s⁻¹
10 | 3C7-VH3-VL0 (antibody, human IgG1, kappa, V domains shown, humanized IgG1) VH: QVQLVQSGAEVKKPGASVKVSCKASGYIFRNYYIHWVKQAPGQGLEWMGAIYPDNGDTSYNQRFKVRATLTADTSTSTVYMELSSLRSEDTAVYYCARAFTYWGQGTTVTVSS VL: DIQMTQSPSSLSASVGDRVTITCRASENIYGALNWYQQKPGKAPKLLIYGATNLADGVPSRFSGSGSGTDFTLTISSLQPEDFATYYCQNVLSTPYTFGGGTKVEIKR | – | – | – | – | – | – | – | – | 0.624 µg/mL | 2.51 nM | 0.000831 s⁻¹ | 331000 M⁻¹ s⁻¹
11 | 3C7-VH3-VL1 (antibody, human IgG1, kappa, V domains shown, humanized IgG1) VH: QVQLVQSGAEVKKPGASVKVSCKASGYIFRNYYIHWVKQAPGQGLEWMGAIYPDNGDTSYNQRFKVRATLTADTSTSTVYMELSSLRSEDTAVYYCARAFTYWGQGTTVTVSS VL: DIQMTQSPSSLSASVGDRVTITCGASENIYGALNWYQQKPGKAPKLLIYGATNLADGVPSRFSGSGSGTDYTLTISSLQPEDVATYYCQNVLSTPYTFGGGTKVEIKR | – | – | – | – | – | – | – | – | 0.446 µg/mL | 2.46 nM | 0.00106 s⁻¹ | 429000 M⁻¹ s⁻¹
12 | 3C7-VH3-VL3 (antibody, human IgG1, kappa, V domains shown, humanized IgG1) VH: QVQLVQSGAEVKKPGASVKVSCKASGYIFRNYYIHWVKQAPGQGLEWMGAIYPDNGDTSYNQRFKVRATLTADTSTSTVYMELSSLRSEDTAVYYCARAFTYWGQGTTVTVSS VL: DIQMTQSPSSLSASVGDRVTITCGASENIYGALNWYQRKPGKSPKLLIYGATNLADGVPSRFSGSGSGTDYTLTISSLQPEDVATYYCQNVLSTPYTFGGGTKLEIKR | – | – | – | – | – | – | – | – | 0.536 µg/mL | 2.43 nM | 0.000777 s⁻¹ | 320000 M⁻¹ s⁻¹
13 | 3C7-VH3-VL2 (antibody, human IgG1, kappa, V domains shown, humanized IgG1) VH: QVQLVQSGAEVKKPGASVKVSCKASGYIFRNYYIHWVKQAPGQGLEWMGAIYPDNGDTSYNQRFKVRATLTADTSTSTVYMELSSLRSEDTAVYYCARAFTYWGQGTTVTVSS VL: DIQMTQSPSSLSASVGDRVTITCGASENIYGALNWYQRKPGKAPKLLIYGATNLADGVPSRFSGSGSGTDYTLTISSLQPEDFATYYCQNVLSTPYTFGGGTKLEIKR | – | – | – | – | – | – | – | – | 0.523 µg/mL | 2.48 nM | 0.000829 s⁻¹ | 334000 M⁻¹ s⁻¹
